This note sets out measurements from the supplement of paper PMC10065799, “High-throughput profiling of sequence recognition by tyrosine kinases and SH2 domains using bacterial peptide display” (eLife, 2023).

One data set has as its target c-Src SH2. As to the kind of experiment: SH2 binding enrichment of the phosphorylated peptide, bacterial display (enrichment ratio); higher = better substrate or ligand; peptides without Tyr show the background.
A further data set addresses SHP2-C SH2. The description is as above.
Another data set has as its target Grb2 SH2 (UniProt P62993). The description is as above.
The target of another data set is EPHB1 (UniProt P54762). Kind of data set: phosphorylation enrichment, bacterial display (enrichment ratio); higher = better substrate or ligand; peptides without Tyr show the background.
Another data set addresses FGFR1 (UniProt P11362). Described as above.
The target of the next data set is FGFR3 (UniProt P22607). The data set is described as above.
The test system of another data set is c-Src. The description is as above.
In a further data set the test system is c-Abl (mouse). The data set is described as above.
The target of a further data set is EPHB2 (UniProt P29323). The description is as above.
The target in another data set is Fyn (UniProt P06241). Described as above.
Another data set concerns Fer (mouse). The description is as above.
For the next data set, the target named is Jak2 (UniProt O60674). Described as above.
Another data set concerns the target MERTK (UniProt Q12866). The description is as above.
In another data set the test system is AncSZ. The data set is described as above.
In another data set the target is Hck (UniProt P08631). Described as above.
The next data set has as its target Fes (UniProt P07332). Described as above.
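Throughout, for SH2 binding enrichment of the phosphorylated peptide, bacterial display: peptide library displayed on the E. coli surface as eCPX fusions, selected cells deep-sequenced, score is each peptide's frequency after selection divided by its frequency in the input.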
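Throughout, for phosphorylation enrichment, bacterial display: 11-residue human phosphosite peptides and single-mutation variants displayed on the E. coli surface, counted by deep sequencing, each peptide's frequency after selection divided by its frequency in the unselected input library; frequency after pTyr selection over input frequency; kinase dosed for 20-30% of maximal phosphorylation in three min.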

Chain of FGFR3 (P22607 whole entry, looked up): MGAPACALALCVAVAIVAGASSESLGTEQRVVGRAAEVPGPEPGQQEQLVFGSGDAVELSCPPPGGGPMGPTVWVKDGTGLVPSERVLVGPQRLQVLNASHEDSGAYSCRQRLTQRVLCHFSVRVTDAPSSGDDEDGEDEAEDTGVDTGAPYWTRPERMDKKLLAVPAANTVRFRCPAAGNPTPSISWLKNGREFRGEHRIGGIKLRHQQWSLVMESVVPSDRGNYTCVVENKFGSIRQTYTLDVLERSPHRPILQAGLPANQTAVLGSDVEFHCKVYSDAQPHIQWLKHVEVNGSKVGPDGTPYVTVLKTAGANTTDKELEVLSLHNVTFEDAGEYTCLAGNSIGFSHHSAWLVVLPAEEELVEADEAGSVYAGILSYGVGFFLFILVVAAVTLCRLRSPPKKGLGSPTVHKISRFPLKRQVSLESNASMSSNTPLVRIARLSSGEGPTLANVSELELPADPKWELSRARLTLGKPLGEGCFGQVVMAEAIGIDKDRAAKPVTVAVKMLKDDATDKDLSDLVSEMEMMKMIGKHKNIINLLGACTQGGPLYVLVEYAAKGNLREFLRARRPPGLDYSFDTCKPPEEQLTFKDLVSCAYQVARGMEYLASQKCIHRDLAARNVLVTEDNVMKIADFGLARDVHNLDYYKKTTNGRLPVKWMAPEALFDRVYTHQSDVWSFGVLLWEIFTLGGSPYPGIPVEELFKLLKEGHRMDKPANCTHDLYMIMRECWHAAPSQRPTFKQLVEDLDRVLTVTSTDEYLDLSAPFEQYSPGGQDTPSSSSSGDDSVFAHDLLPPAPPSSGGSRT
Chain of Jak2 (O60674 whole entry, looked up): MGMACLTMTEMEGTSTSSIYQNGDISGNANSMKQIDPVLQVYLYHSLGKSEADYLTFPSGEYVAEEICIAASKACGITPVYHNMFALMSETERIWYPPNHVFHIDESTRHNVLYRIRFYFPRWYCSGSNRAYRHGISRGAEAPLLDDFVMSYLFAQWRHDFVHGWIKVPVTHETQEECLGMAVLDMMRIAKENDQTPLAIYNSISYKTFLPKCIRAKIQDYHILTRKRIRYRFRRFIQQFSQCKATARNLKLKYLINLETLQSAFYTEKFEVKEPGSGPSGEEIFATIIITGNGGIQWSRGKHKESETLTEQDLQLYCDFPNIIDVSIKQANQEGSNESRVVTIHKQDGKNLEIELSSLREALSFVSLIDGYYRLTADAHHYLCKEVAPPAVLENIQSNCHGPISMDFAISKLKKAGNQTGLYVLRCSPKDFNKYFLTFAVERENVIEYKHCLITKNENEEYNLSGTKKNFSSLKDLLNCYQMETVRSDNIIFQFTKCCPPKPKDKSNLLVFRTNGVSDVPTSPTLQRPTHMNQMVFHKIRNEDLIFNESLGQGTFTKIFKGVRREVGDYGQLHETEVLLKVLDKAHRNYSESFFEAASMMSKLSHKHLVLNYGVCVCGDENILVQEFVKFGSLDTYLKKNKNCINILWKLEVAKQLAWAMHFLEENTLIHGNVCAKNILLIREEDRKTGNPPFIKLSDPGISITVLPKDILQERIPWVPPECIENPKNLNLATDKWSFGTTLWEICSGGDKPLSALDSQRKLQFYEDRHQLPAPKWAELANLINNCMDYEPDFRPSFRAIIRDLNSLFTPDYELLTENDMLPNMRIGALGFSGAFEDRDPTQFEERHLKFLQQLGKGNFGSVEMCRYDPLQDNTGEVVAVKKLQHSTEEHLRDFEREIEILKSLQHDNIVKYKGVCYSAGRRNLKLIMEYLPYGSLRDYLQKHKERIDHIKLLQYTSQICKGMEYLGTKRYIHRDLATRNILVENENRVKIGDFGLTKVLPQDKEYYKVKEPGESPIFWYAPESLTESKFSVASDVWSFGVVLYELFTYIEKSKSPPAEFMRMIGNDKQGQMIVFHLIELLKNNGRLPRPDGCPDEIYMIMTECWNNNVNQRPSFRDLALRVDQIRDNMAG
Chain of Grb2 SH2 (P62993 whole entry, looked up): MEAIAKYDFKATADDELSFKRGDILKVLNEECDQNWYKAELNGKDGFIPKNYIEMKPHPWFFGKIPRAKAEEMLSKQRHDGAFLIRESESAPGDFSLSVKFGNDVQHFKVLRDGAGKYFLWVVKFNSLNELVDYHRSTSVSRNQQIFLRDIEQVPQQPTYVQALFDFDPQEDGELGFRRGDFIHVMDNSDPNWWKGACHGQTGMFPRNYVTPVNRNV
Chain of EPHB1 (P54762 whole entry, looked up): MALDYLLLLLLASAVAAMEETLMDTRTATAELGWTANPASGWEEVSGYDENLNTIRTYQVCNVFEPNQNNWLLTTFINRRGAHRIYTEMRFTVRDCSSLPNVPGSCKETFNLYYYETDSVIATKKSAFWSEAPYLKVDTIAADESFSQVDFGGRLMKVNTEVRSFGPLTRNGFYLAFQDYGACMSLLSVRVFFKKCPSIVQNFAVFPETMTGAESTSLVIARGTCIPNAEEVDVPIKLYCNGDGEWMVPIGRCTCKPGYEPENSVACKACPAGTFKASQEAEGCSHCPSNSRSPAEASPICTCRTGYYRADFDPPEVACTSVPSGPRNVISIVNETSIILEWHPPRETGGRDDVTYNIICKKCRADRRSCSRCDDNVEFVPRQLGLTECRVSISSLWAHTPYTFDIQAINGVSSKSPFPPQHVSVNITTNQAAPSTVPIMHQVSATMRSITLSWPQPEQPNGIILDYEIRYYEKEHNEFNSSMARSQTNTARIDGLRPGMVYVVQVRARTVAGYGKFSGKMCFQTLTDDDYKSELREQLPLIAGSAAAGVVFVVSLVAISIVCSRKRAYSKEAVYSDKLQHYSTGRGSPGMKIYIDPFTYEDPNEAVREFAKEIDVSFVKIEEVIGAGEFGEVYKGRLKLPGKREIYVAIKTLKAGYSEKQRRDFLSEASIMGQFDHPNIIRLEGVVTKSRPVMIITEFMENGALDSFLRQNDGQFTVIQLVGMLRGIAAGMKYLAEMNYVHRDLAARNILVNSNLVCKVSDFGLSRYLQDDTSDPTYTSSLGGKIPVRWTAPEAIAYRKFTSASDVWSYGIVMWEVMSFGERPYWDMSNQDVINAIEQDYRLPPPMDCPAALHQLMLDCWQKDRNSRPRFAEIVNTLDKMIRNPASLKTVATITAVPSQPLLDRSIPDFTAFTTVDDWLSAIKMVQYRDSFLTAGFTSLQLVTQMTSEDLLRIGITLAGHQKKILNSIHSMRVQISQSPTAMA
Chain of Hck (P08631 whole entry, looked up): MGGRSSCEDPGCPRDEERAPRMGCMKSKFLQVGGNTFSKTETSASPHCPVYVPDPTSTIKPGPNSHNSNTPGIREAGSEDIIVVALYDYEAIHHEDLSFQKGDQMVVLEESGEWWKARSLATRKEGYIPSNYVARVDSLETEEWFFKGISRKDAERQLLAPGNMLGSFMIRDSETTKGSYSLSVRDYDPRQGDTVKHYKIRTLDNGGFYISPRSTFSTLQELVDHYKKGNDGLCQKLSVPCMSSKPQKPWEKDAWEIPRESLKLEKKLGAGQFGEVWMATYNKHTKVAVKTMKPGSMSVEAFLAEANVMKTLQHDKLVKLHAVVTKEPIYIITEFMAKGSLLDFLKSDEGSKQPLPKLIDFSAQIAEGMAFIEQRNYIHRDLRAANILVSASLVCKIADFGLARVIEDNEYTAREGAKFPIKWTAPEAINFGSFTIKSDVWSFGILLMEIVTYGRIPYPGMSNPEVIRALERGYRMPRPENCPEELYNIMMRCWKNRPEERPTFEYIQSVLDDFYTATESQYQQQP
Chain of EPHB2 (P29323 whole entry, looked up): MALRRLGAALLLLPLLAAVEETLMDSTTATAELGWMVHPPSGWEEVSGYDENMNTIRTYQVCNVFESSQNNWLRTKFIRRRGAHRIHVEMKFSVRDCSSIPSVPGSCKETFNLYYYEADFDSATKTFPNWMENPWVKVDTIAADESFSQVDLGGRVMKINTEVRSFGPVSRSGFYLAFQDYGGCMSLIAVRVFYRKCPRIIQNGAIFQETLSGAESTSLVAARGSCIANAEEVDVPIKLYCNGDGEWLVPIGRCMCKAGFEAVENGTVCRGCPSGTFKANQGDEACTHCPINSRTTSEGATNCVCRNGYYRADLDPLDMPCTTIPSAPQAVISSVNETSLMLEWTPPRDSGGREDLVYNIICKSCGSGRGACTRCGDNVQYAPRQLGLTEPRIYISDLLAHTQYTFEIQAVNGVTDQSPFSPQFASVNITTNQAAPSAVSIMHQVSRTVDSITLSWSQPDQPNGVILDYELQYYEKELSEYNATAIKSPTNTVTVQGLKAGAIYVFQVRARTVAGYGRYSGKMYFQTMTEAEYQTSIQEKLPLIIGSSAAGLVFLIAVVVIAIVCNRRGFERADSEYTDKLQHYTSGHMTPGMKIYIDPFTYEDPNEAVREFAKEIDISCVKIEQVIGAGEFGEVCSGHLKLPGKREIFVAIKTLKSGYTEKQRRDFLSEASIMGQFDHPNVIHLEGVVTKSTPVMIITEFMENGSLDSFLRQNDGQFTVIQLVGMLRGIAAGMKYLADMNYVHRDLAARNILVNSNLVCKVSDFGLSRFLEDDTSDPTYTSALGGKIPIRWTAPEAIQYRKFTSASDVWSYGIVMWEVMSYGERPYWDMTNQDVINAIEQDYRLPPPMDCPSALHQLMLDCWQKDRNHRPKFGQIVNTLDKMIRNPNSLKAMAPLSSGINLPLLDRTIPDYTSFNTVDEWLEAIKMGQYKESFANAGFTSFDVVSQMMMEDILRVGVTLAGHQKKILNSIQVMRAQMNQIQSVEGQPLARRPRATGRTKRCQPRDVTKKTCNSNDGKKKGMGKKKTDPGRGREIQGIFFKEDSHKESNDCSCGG

As for RRKRAYVEIEF [MAK16_Y282_Q277R_YF], the figures for the SH2 binding enrichment with c-Src SH2, in the data set with SHP2-C SH2 and with Grb2 SH2 were 0.434, 0.459 and 0.504, respectively. Besides, the phosphorylation enrichment with EPHB1 was found to be 0.582; in the data set with FGFR1, 0.563; in the data set with FGFR3, 0.871; with c-Src, 0.542; in the data set with c-Abl (mouse), 0.58; with EPHB2, 0.658. Moreover, the phosphorylation enrichment with Fyn came to 0.58; with Fer (mouse), 0.551; with Jak2, 0.593; in the data set with MERTK, 0.759; with AncSZ, 0.665; with Hck it was 0.505. Moreover, the phosphorylation enrichment with Fes came to 0.828.

For the sequence RRVLVYGGRGA [QDPR_Y16], the figures for the SH2 binding enrichment with c-Src SH2, with SHP2-C SH2 and in the data set with Grb2 SH2 were 0.407, 0.683 and 0.608, respectively. Moreover, the phosphorylation enrichment with EPHB1 is 0.488; with FGFR1, 0.357; with FGFR3, 0.702; in the data set on c-Src it was 0.674; in the data set with c-Abl (mouse), 0.575; with EPHB2, 0.822. In addition, the phosphorylation enrichment in the data set with Fyn came out at 0.563; in the data set on Fer (mouse), 0.716; with Jak2, 0.361; with MERTK, 0.549; in the data set on AncSZ, 1.1; with Hck it was 0.597. Also, the phosphorylation enrichment in the data set with Fes was 0.681.

As for RRYLYYYSYLL [PTEN_Y177_V175L], the SH2 binding enrichment with c-Src SH2 is 0.686; with SHP2-C SH2 it was 0.712; with Grb2 SH2 it was 0.973. Moreover, the phosphorylation enrichment with EPHB1 came out at 1.13; with FGFR1 it was 1.74; in the data set with FGFR3, 1.93; in the data set with c-Src, 1.68; in the data set with c-Abl (mouse) it was 1.02; with EPHB2 it was 0.91. Moreover, the phosphorylation enrichment came to 0.816 with Fyn; 1.24 in the data set with Fer (mouse); 3.29 with Jak2; 5.8 with MERTK; 1.13 in the data set with AncSZ; 1.17 in the data set with Hck. Moreover, in the data set with Fes, the phosphorylation enrichment is 1.75.

As for RSHLPYDVTPE [IQGAP3_Y1098], the SH2 binding enrichment with c-Src SH2 is 0.588; in the data set with SHP2-C SH2, 0.974; with Grb2 SH2, 0.827. Further, the phosphorylation enrichment with EPHB1 was 0.572; in the data set with FGFR1, 0.752; with FGFR3 it was 0.747; with c-Src, 1.27; in the data set on c-Abl (mouse), 1.39; with EPHB2, 0.742. Moreover, the phosphorylation enrichment with Fyn was determined as 0.848; in the data set with Fer (mouse), 0.474; with Jak2, 2.28; with MERTK, 1; with AncSZ it was 1.82; in the data set with Hck, 0.695. Further, the phosphorylation enrichment in the data set with Fes was 1.45.

Take RWGQKYMTAVV [CYBA_Y72]: the SH2 binding enrichment with c-Src SH2 worked out at 0.948; in the data set with SHP2-C SH2, 0.698; with Grb2 SH2, 1.57. Further, the phosphorylation enrichment in the data set with EPHB1 was determined as 0.494; in the data set with FGFR1 it was 0.654; with FGFR3, 0.884; in the data set with c-Src, 0.312; in the data set with c-Abl (mouse) it was 0.328; in the data set with EPHB2, 0.783. Also, the phosphorylation enrichment in the data set with Fyn was determined as 0.488; with Fer (mouse) it was 0.568; in the data set with Jak2 it was 0.409; in the data set with MERTK it was 0.452; in the data set on AncSZ it was 0.731; with Hck it was 0.609. Further, the phosphorylation enrichment with Fes is 0.665.

For SAPPSYEETVA [LITAF_Y23], the SH2 binding enrichment with c-Src SH2 was determined as 0.909; with SHP2-C SH2, 0.975; with Grb2 SH2, 0.761. Also, the phosphorylation enrichment with EPHB1 was 0.6; in the data set with FGFR1, 0.65; with FGFR3, 0.672; in the data set with c-Src, 0.398; in the data set with c-Abl (mouse), 0.727; with EPHB2, 0.636. The phosphorylation enrichment with Fyn came out at 0.645; with Fer (mouse), 0.531; in the data set with Jak2, 0.828; with MERTK, 0.414; in the data set with AncSZ it was 1.1; with Hck, 0.569. In addition, the phosphorylation enrichment in the data set with Fes is 1.09.

SARFPYLMAEK [LDHB_Y173_R172P]: the SH2 binding enrichment was 0.579 with c-Src SH2, 0.523 with SHP2-C SH2 and 0.912 with Grb2 SH2. Moreover, the phosphorylation enrichment with EPHB1 came to 0.373; in the data set with FGFR1 it was 0.387; with FGFR3, 0.455; in the data set on c-Src, 0.483; in the data set on c-Abl (mouse), 0.361; with EPHB2, 0.416. The phosphorylation enrichment with Fyn was 0.315; with Fer (mouse), 0.389; in the data set with Jak2 it was 0.504; with MERTK it was 0.325; in the data set on AncSZ, 0.604; with Hck, 0.422. Besides, the phosphorylation enrichment with Fes is 0.687.

Regarding SDGHEYIFVDP [PDGFRB_Y579_YF], the SH2 binding enrichment with c-Src SH2 is 0.769; with SHP2-C SH2, 0.544; with Grb2 SH2, 0.769. In addition, the phosphorylation enrichment is 0.478 with EPHB1; 1.75 with FGFR1; 1.37 in the data set with FGFR3; 0.512 with c-Src; 0.573 in the data set on c-Abl (mouse); 0.486 in the data set with EPHB2. In addition, the phosphorylation enrichment worked out at 0.509 with Fyn; 0.447 in the data set with Fer (mouse); 1 with Jak2; 0.425 with MERTK; 2.08 with AncSZ; 0.43 with Hck. Also, in the data set with Fes, the phosphorylation enrichment turned out to be 0.811.
